Columns and labels:
[1] = target: T1, W tag fused GFPUV
T1 chain: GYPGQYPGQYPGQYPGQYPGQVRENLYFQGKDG

[2] = target: His-eTEV-Fn fusion protein (wild type), P02751
[3] = target: His-eTEV-Fn fusion protein, Ala mutant Y5, P02751
[4] = target: His-eTEV-Fn fusion protein, Ala mutant D10, P02751
[5] = target: His-eTEV-Fn fusion protein, Ala mutant L4, P02751
[6] = target: His-eTEV-Fn fusion protein, Ala mutant F6, P02751
[7] = target: His-eTEV-Fn fusion protein, Ala mutant G11, P02751
[8] = target: His-eTEV-Fn fusion protein, Ala mutant M0, P02751
[9] = target: His-eTEV-Fn fusion protein, Ala mutant K9, P02751
[10] = target: His-eTEV-Fn fusion protein, Ala mutant E2, P02751
[11] = target: W tag fused Fn, P02751
[12] = target: His-eTEV-Fn fusion protein, Ala mutant R1, P02751
[13] = target: His-eTEV-Fn fusion protein, Ala mutant Q7, P02751
[14] = target: His-eTEV-Fn fusion protein, Ala mutant G8, P02751
[15] = target: His-eTEV-Fn fusion protein, Ala mutant N3, P02751
Chain of His-eTEV-Fn fusion protein, Ala mutant N3, P02751 (P02751 whole entry, looked up, change not shown, the tested form may be a part): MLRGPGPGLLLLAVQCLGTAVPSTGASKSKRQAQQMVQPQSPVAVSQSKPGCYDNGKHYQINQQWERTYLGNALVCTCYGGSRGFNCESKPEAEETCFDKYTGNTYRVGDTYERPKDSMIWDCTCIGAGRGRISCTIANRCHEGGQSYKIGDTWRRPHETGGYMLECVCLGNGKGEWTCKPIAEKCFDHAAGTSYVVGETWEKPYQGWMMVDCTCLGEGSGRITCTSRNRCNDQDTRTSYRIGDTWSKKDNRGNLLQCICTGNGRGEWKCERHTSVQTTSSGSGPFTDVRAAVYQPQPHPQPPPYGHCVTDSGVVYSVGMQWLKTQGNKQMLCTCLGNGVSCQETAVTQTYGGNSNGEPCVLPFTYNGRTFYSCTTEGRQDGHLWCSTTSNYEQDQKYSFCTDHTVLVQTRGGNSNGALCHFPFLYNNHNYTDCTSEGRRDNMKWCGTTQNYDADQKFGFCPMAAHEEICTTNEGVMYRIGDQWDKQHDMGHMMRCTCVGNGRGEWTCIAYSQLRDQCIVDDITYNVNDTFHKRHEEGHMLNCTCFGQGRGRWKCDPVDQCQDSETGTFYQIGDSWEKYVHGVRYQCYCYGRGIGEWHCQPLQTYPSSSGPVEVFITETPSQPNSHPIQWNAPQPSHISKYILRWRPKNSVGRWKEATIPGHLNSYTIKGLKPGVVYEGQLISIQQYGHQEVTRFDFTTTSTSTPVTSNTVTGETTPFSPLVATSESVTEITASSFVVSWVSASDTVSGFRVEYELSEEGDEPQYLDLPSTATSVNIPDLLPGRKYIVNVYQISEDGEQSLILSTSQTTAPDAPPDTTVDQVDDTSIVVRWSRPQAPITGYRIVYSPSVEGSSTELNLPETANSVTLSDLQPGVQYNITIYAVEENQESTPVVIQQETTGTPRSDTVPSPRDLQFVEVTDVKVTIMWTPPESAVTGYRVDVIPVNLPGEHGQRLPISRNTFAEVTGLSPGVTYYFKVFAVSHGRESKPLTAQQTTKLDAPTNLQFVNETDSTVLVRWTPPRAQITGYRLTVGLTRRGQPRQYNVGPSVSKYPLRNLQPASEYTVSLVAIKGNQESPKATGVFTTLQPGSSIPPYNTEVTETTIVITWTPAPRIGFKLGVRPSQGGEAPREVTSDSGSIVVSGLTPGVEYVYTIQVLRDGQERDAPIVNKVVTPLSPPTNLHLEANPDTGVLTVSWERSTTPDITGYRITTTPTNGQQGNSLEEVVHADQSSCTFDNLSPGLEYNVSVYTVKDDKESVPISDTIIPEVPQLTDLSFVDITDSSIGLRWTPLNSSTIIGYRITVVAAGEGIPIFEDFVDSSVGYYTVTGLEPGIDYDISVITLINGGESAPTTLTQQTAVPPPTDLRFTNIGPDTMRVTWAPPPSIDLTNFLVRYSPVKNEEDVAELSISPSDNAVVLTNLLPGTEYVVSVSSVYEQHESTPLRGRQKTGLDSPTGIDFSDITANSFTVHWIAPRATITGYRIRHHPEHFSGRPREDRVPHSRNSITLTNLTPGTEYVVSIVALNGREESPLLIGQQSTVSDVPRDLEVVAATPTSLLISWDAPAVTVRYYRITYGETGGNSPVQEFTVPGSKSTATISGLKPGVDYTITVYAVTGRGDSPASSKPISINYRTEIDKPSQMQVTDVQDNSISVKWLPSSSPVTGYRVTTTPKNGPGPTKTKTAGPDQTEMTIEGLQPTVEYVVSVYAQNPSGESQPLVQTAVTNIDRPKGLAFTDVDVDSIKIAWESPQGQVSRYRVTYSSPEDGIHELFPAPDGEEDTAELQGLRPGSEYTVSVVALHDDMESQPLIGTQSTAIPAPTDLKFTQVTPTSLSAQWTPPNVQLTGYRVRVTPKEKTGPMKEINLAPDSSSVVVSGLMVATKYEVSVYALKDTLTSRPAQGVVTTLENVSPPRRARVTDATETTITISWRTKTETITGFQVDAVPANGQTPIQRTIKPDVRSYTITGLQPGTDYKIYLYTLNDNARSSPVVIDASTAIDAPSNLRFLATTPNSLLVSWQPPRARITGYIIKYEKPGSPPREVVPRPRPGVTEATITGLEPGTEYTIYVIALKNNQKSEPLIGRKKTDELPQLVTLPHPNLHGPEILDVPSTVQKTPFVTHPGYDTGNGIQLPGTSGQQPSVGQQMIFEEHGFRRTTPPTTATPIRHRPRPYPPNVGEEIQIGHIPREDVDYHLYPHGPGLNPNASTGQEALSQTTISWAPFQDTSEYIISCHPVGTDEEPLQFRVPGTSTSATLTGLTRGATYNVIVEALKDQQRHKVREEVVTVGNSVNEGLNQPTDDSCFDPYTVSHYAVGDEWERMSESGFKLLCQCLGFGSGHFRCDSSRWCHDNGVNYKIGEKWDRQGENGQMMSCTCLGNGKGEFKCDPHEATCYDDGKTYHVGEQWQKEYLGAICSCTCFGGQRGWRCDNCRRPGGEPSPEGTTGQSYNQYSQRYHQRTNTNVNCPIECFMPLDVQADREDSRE

Chain of His-eTEV-Fn fusion protein, Ala mutant G11, P02751 (P02751 whole entry, looked up, change not shown, the tested form may be a part): as above
Chain of His-eTEV-Fn fusion protein, Ala mutant L4, P02751 (P02751 whole entry, looked up, change not shown, the tested form may be a part): as above
Chain of His-eTEV-Fn fusion protein, Ala mutant Q7, P02751 (P02751 whole entry, looked up, change not shown, the tested form may be a part): as above
Chain of His-eTEV-Fn fusion protein, Ala mutant K9, P02751 (P02751 whole entry, looked up, change not shown, the tested form may be a part): as above
Chain of His-eTEV-Fn fusion protein, Ala mutant Y5, P02751 (P02751 whole entry, looked up, change not shown, the tested form may be a part): as above
Chain of His-eTEV-Fn fusion protein, Ala mutant E2, P02751 (P02751 whole entry, looked up, change not shown, the tested form may be a part): as above
Chain of His-eTEV-Fn fusion protein, Ala mutant D10, P02751 (P02751 whole entry, looked up, change not shown, the tested form may be a part): as above
Chain of His-eTEV-Fn fusion protein, Ala mutant F6, P02751 (P02751 whole entry, looked up, change not shown, the tested form may be a part): as above
Chain of His-eTEV-Fn fusion protein, Ala mutant G8, P02751 (P02751 whole entry, looked up, change not shown, the tested form may be a part): as above
Chain of His-eTEV-Fn fusion protein, Ala mutant M0, P02751 (P02751 whole entry, looked up, change not shown, the tested form may be a part): as above
Chain of His-eTEV-Fn fusion protein, Ala mutant R1, P02751 (P02751 whole entry, looked up, change not shown, the tested form may be a part): as above
Chain of His-eTEV-Fn fusion protein (wild type), P02751 (P02751 other isoform, or with tags, fused parts or gaps): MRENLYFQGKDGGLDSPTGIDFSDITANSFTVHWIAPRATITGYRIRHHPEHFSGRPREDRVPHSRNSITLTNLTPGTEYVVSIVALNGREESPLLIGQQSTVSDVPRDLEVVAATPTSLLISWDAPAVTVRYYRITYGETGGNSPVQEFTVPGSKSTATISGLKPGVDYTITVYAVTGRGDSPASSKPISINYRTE

B1: Tobacco etch virus (TEV) protease (protein)
chain: GESLFKGPRDYNPISSTICHLTNESDGHTTSLYGIGFGPFIITNKHLFRRNNGTLLVQSLHGVFKVKNTTTLQQHLIDGRDMIIIRMPKDFPPFPQKLKFREPQREERICLVTTNFQTKSMSSMVSDTSCTFPSSDGIFWKHWIQTKDGQCGSPLVSTRDGFIVGIHSASNFTNTNNYFTSVPKNFMELLTNQEAQQWVSGWRLNADSVLWGGHKVFMSKPEEPFQPVKEATQLMNELVYSQ
- cleavage by TEV protease [1]: the above-mentioned W tag fusion proteins, like single tag fusion proteins, can be used ... for cleavage by TEV protease
- cleavage by TEV protease (SDS electrophoresis, 24 kDa to 20 kDa shift) [2]: The eTEV peptide is recognized and cleaved by TEV protease.
- cleavage by TEV protease (SDS electrophoresis, 24 kDa to 20 kDa shift) [3]: the 4th, 5th and 7th amino acids (namely, Leu, Tyr and Gln) are essential for the substrate of TEV protease
- cleavage by TEV protease (SDS electrophoresis, 24 kDa to 20 kDa shift) [4]: the other residues are substitutable with Ala
- cleavage by TEV protease (SDS electrophoresis, 24 kDa to 20 kDa shift) [5]: the 4th, 5th and 7th amino acids (namely, Leu, Tyr and Gln) are essential for the substrate of TEV protease
- cleavage by TEV protease (SDS electrophoresis, 24 kDa to 20 kDa shift) [6]: the other residues are substitutable with Ala
- cleavage by TEV protease (SDS electrophoresis, 24 kDa to 20 kDa shift) [7]: the other residues are substitutable with Ala
- cleavage by TEV protease (SDS electrophoresis, 24 kDa to 20 kDa shift) [8]: the other residues are substitutable with Ala
- cleavage by TEV protease (SDS electrophoresis, 24 kDa to 20 kDa shift) [9]: the other residues are substitutable with Ala
- cleavage by TEV protease (SDS electrophoresis, 24 kDa to 20 kDa shift) [10]: substitution of Ala for Glu at residue 2 gives no significant change in cleavage
- cleavage by TEV protease [11]: the above-mentioned W tag fusion proteins, like single tag fusion proteins, can be used ... for cleavage by TEV protease
- cleavage by TEV protease (SDS electrophoresis, 24 kDa to 20 kDa shift) [12]: the other residues are substitutable with Ala
- cleavage by TEV protease (SDS electrophoresis, 24 kDa to 20 kDa shift) [13]: the 4th, 5th and 7th amino acids (namely, Leu, Tyr and Gln) are essential for the substrate of TEV protease
- cleavage by TEV protease (SDS electrophoresis, 24 kDa to 20 kDa shift) [14]: the other residues are substitutable with Ala
- cleavage by TEV protease (SDS electrophoresis, 24 kDa to 20 kDa shift) [15]: the other residues are substitutable with Ala
